Results reported in paper PMC3169398, “Structures of phosphopantetheine adenylyltransferase from Burkholderia pseudomallei” (Acta Crystallographica Section F: Structural Biology and …, 2011).

B1: Phosphopantetheine adenylyltransferase from B. pseudomallei strain 1710b, tag removed (GPGS-ORF) (enzyme)
chain: MVVAVYPGTFDPLTRGHEDLVRRASSIFDTLVVGVADSRAKKPFFSLEERLKIANEVLGHYPNVKVMGFTGLLKDFVRANDARVIVRGLRAVSDFEYEFQMAGMNRYLLPDVETMFMTPSDQYQFISGTIVREIAQLGGDVSKFVFPSVEKWLTEKVAAMAQGPSA
notes: also called Bp PPAT; PPAT
B2: Phosphopantetheine adenylyltransferase from B. pseudomallei strain 1710b, with the full-length expression tag (…-ORF) (enzyme)
chain: B1 chain
notes: also called Bp PPAT; PPAT

Biological target: the molecule itself
Assay: crystal structure

Protein	stoichiometry N
B1	6
B2	6
